Data: the supplement of paper PMC10567573

B1: ADD1 (parent)
chain: LRHSFQKQQREKTRWLNSGRGDEA
B2: KRT18 (parent)
chain: RAQYDELARKNREELDKYWSQQIE

Variants of: B1
Assay: protein stability index of a GFP-peptide fusion (GPS, HEK-293T) (PSI 1-6); higher = more stable
Conditions: c terminus: a fixed tail appended
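Also: lentivirally expressed fusions sorted by FACS into six bins by GFP to DsRed ratio, PSI derived from sequencing read proportions per bin multiplied by bin number.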

Protein stability index: each site, then its substitutions
E23: A 3.98; D 3.6; W 2.77; K 2.73; P 3.75; G 3.64; Y 2.66; I 3.24; Q 3.2; R 3.49; L 2.38; V 3.47; T 3.48; N 3.73; M 3.25; S 3.83; H 3.23; F 2.28; C 3.54
A24: I 3.15; N 4.03; V 3.56; S 3.9; Q 4.03; C 3.51; T 3.48; F 2.69; M 3.56; Y 3.18; D 3.95; R 3.93; H 3.31; L 3.08; P 3.58; K 4.12; E 4.52; G 3.96; W 1.65
D22: V 3.25; Y 2.78; W 1.99

Variants of: B2
Assay: as above
Conditions: c terminus: a fixed tail appended

Protein stability index of substitutions, site by site:
E6: W 2.42; V 3.32; H 3.41; D 3.27; N 3.66; Q 3.51; P 4.07; F 3.15; S 3.24; G 3.02; Y 3.25; A 3.3; R 3.17; M 2.99; C 2.3; T 3.36; I 3.05; L 2.85; K 3.48
L7: W 2.13; F 1.27; E 2.75; A 3.7; Y 3.06; H 3.62; N 4.22; T 3.68; I 3.41; K 3.93; M 2.38; D 3; Q 3.78; G 3.19; R 3.89; C 3.42; V 3.41; P 4.08; S 3.84
Q3: F 2.38; G 3.21; P 2.94; L 2.55; Y 2.56; K 3.19; W 2.07; V 2.31; M 2.52; I 2.44; E 3.19; R 3.27; A 2.68; H 2.54; C 2.51; N 4.45; D 3.54; S 2.21; T 2.89
D5: R 2.79; C 3.33; I 2.98; F 2.83; G 3.09; N 3.17; A 2.74; M 2.75; E 2.86; S 2.79; P 3.73; K 2.84; T 3.57; H 3.29; L 2.33; V 3.57; Y 3.28; Q 3.38
E13: D 3.54; C 2.81; F 3.1; W 2.65; A 3.41; R 3.31; Y 3.05; G 3.92; M 2.82; S 3.96; V 2.07; H 3.54; I 2.05; Q 2.91; L 3.07; P 2.99; N 3.58; T 3.82; K 3.2
K10: A 2.97; S 3.23; I 2.79; F 3.34; E 3.33; C 3.02; T 3.5; H 4.16; V 3.15; N 3.79; P 3.83; W 2.81; R 3.03; G 4.05; L 3.73; Q 3.14; M 4.04; Y 4.15; D 4.73
R1: H 2.97; V 3.71; M 2.97; G 3.12; S 3.06; F 2.47; W 2.12; A 3.38; C 2.19; K 2.29; L 2.79; Q 3.07; E 3.06; I 2.79; D 2.87; Y 2.29; T 3.02; N 2.99; P 3.08
R9: V 2.86; S 3.66; E 3.69; K 3.52; L 3.27; G 4.53; Q 3.16; A 3.92; P 4.28; I 3.34; N 3.46; W 2.62; C 3.6; F 3.88; Y 3.64; H 3.4; M 3.17; T 3.53; D 4.4
A2: C 2.48; T 2.52; V 3.11; N 2.52; K 2.65; Q 3.07; R 3.24; L 2.51; G 2.33; I 2.5; F 2.73; D 3.18; S 3.25; H 3.23; M 2.65; P 3.13; W 3.13; Y 2.72; E 3.34
Y4: H 3.45; F 3.52; C 3.44; E 3.57; L 2.25; S 3.74; I 3.47; K 3.46; A 3.84; D 3.23; W 2.48; G 3.04; V 4; Q 3.93; M 3.18; R 4; P 3.67; N 3.68; T 3.91
N11: V 2.75; I 2.37; F 1.94; R 3.39; H 3.75; T 2.8; S 4.15; M 2.81; K 3.96; D 4.23; C 2.81; G 3.71; Y 2.27; Q 3.87; W 2.63; L 2.66; A 4; P 4.02; E 4.54
A8: P 4.42; M 2.66; H 2.17; C 2.75; D 4.2; L 2.34; T 2.33; R 3.51; N 3.54; S 3.5; K 3.85; G 3.72; E 4.57; F 3.41; Q 3.75; W 1.31; V 2.6; I 3.17
L15: Q 4.71; I 3.94; T 4.1; R 4.22; N 3.57; D 4.9; G 4.07; F 3.22; M 4.06; V 3.41; S 4.19; W 1.95; Y 3.3; C 3.18; A 4.37; K 3.87; E 3.98; H 4.25; P 4.6
E14: S 3.5; A 3.82; V 3.62; H 3.29; L 2.97; C 3.42; K 2.94; D 3.94; M 2.92; Y 3.07; F 2.5; W 3.89; N 3.04; R 2.87; Q 3.85; P 3.81; T 3.56; G 3.83; I 2.62
R12: T 4.19; E 4.27; W 4.56; A 4.25; N 3.94; C 3.98; S 4.56; Y 4.05; D 4.17; F 4.13; P 4.08; L 4.56; K 4.37; H 3.64; Q 4.12; V 4.34; I 4.34; M 3.72; G 3.32
D16: L 3.12; M 2.74; F 2.1; A 2.56; E 3.39; I 2.15; G 2.03; C 2.4; N 1.42; H 3.35
